Assays:
Assay in all cases: SPOT array
GST = conditions: median of control spots 978
Rvs167, P39743 = conditions: median of control spots 2707
Cdc25, P04821 = molecular target: T1, Cdc25, P04821; conditions: median of control spots 969
T1 sequence (P04821 50-136, looked up): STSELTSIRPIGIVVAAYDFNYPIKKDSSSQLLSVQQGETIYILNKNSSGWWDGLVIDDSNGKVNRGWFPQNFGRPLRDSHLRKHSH

Bem1-2, P29366 = conditions: median of control spots 4347
Bud14, P27637 = molecular target: T2, Bud14, P27637; conditions: median of control spots 956
T2 sequence (P27637 247-328, looked up): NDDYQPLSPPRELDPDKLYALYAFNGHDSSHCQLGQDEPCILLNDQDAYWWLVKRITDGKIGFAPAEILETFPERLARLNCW

Nbp2, Q12163 = molecular target: T3, Nbp2, Q12163; conditions: median of control spots 357
T3 sequence (Q12163 103-180, looked up): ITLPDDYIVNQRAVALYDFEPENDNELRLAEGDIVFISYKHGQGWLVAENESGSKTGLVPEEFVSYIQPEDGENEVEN

Fus1, P11710 = molecular target: T4, Fus1, P11710; conditions: median of control spots 1200
T4 sequence (P11710 432-512, looked up): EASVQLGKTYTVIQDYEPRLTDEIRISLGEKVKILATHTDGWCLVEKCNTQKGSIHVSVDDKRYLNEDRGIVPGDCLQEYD

Pin3, Q06449 = molecular target: T5, Pin3, Q06449; conditions: median of control spots 2171
T5 sequence (Q06449 53-122, looked up): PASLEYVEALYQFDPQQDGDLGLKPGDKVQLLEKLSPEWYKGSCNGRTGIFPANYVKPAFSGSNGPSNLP

Lsb1, P53281 = molecular target: T6, Lsb1, P53281; conditions: median of control spots 388
T6 sequence (P53281 45-122, looked up): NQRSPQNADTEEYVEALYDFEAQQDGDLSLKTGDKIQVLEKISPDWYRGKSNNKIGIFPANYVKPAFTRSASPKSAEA

Myo3, P36006 = conditions: median of control spots 468
Boi1, P38041 = molecular target: T7, Boi1, P38041; conditions: median of control spots 1162
T7 sequence (P38041 1-86, looked up): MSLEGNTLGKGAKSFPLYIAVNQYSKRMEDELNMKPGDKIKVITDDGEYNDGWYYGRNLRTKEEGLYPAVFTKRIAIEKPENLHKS

Lsb4, P32793 = molecular target: T8, Lsb4, P32793; conditions: median of control spots 397
T8 sequence (P32793 402-468, looked up): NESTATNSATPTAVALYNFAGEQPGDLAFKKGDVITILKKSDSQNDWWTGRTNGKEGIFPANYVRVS

Hof1, Q05080 = molecular target: T9, Hof1, Q05080; conditions: median of control spots 4086
T9 sequence (Q05080 590-669, looked up): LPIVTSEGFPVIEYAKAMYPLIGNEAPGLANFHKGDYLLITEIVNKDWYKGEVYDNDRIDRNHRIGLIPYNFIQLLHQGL

Lsb3, P43603 = molecular target: T10, Lsb3, P43603; conditions: median of control spots 406
T10 sequence (P43603 385-451, looked up): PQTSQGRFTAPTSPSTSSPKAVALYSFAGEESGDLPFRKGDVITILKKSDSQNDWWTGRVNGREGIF

Bbc1, P47068 = molecular target: T11, Bbc1, P47068; conditions: median of control spots 796
T11 sequence (P47068 1-78, looked up): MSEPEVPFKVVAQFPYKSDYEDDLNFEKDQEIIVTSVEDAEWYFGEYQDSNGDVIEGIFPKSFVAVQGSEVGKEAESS

Pex13, P80667 = molecular target: T12, Pex13, P80667; conditions: median of control spots 1341
T12 sequence (P80667 295-386, looked up): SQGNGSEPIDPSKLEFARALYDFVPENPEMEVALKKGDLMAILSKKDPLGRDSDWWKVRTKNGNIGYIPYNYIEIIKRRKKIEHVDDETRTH

Hse1, P38753 = molecular target: T13, Hse1, P38753; conditions: median of control spots 1727
T13 sequence (P38753 208-285, looked up): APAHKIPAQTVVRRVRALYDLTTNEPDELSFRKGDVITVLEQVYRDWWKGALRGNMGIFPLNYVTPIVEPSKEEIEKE

Cyk3, Q07533 = molecular target: T14, Cyk3, Q07533; conditions: median of control spots 1451
T14 sequence (Q07533 1-83, looked up): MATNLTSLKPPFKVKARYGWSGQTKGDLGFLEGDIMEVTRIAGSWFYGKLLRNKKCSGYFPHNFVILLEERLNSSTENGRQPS

Myo5, Q04439 = molecular target: T15, Myo5, Q04439; conditions: median of control spots 471
T15 sequence (Q04439 1072-1160, looked up): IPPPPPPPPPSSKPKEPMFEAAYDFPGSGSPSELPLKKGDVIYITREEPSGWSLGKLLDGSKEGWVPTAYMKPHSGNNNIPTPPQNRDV

Boi2, P39969 = molecular target: T16, Boi2, P39969; conditions: median of control spots 1161
T16 sequence (P39969 32-116, looked up): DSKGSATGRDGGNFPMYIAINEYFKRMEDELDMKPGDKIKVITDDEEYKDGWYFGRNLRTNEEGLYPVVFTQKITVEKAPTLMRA

Sla1-3, P32790 = molecular target: T17, Sla1-3, P32790; conditions: median of control spots 5475
T17 sequence (P32790 344-424, looked up): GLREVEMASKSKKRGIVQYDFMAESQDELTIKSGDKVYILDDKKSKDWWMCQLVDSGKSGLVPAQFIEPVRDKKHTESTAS

Sla1-2, P32790 = molecular target: T18, Sla1-2, P32790; conditions: median of control spots 712
T18 sequence (P32790 60-140, looked up): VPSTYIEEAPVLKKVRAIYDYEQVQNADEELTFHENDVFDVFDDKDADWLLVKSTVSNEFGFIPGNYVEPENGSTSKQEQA

Bzz1-2, P38822 = molecular target: T19, Bzz1-2, P38822; conditions: median of control spots 4538
T19 sequence (P38822 568-633, looked up): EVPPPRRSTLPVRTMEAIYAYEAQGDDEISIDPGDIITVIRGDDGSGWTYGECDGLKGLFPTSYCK

Bzz1-1, P38822 = molecular target: T20, Bzz1-1, P38822; conditions: median of control spots 4446
T20 sequence (P38822 478-572, looked up): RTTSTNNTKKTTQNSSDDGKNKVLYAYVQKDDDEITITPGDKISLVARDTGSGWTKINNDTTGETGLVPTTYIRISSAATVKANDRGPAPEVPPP

Abp1, P15891 = molecular target: T21, Abp1, P15891; conditions: median of control spots 935
T21 sequence (P15891 535-592, looked up): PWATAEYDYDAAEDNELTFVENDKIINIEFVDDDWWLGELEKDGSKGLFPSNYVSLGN

Bem1-1, P29366 = conditions: median of control spots 4282
Sho1, P40073 = conditions: median of control spots 1148
Sho1, P40073, sequence (P40073 287-367): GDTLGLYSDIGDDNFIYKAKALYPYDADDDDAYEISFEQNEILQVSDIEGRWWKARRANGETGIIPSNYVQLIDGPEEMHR

Bem1-2, P29366, sequence (P29366 139-227): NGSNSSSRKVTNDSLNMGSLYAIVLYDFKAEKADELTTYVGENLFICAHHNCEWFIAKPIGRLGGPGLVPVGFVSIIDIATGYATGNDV
Bem1-1, P29366, sequence (P29366 55-141): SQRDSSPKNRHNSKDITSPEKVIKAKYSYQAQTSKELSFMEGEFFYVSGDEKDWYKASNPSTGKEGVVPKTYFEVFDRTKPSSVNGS
Rvs167, P39743, sequence (P39743 419-482): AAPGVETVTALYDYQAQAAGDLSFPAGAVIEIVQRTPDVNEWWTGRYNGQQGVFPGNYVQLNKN

Binder: RTRRRPPPPPIPSTQ
- SPOT intensity (GST): 1
- SPOT intensity (Rvs167, P39743): 99
- SPOT intensity (Cdc25, P04821): 3
- SPOT intensity (Bem1-2, P29366): 79
- SPOT intensity (Bud14, P27637): 16
- SPOT intensity (Nbp2, Q12163): 107
- SPOT intensity (Fus1, P11710): 13
- SPOT intensity (Pin3, Q06449): 10
- SPOT intensity (Lsb1, P53281): 800
- SPOT intensity (Myo3, P36006): 487
- SPOT intensity (Boi1, P38041): 1
- SPOT intensity (Lsb4, P32793): 69
- SPOT intensity (Hof1, Q05080): 8
- SPOT intensity (Lsb3, P43603): 56
- SPOT intensity (Bbc1, P47068): 434
- SPOT intensity (Pex13, P80667): 21
- SPOT intensity (Hse1, P38753): 63
- SPOT intensity (Cyk3, Q07533): 3
- SPOT intensity (Myo5, Q04439): 243
- SPOT intensity (Boi2, P39969): 0
- SPOT intensity (Sla1-3, P32790): 1980
- SPOT intensity (Sla1-2, P32790): 3
- SPOT intensity (Bzz1-2, P38822): 2960
- SPOT intensity (Bzz1-1, P38822): 1470
- SPOT intensity (Abp1, P15891): 212
- SPOT intensity (Bem1-1, P29366): 0
- SPOT intensity (Sho1, P40073): 83

Binder: SPLGAPPPPPHKDHL
- SPOT intensity (GST): 1
- SPOT intensity (Rvs167, P39743): 2
- SPOT intensity (Cdc25, P04821): 0
- SPOT intensity (Bem1-2, P29366): 0
- SPOT intensity (Bud14, P27637): 0
- SPOT intensity (Nbp2, Q12163): 0
- SPOT intensity (Fus1, P11710): 0
- SPOT intensity (Pin3, Q06449): 0
- SPOT intensity (Lsb1, P53281): 0
- SPOT intensity (Myo3, P36006): 327
- SPOT intensity (Boi1, P38041): 1
- SPOT intensity (Lsb4, P32793): 0
- SPOT intensity (Hof1, Q05080): 0
- SPOT intensity (Lsb3, P43603): 0
- SPOT intensity (Bbc1, P47068): 0
- SPOT intensity (Pex13, P80667): 0
- SPOT intensity (Hse1, P38753): 0
- SPOT intensity (Cyk3, Q07533): 0
- SPOT intensity (Myo5, Q04439): 81
- SPOT intensity (Boi2, P39969): 0
- SPOT intensity (Sla1-3, P32790): 0
- SPOT intensity (Sla1-2, P32790): 0
- SPOT intensity (Bzz1-2, P38822): 0
- SPOT intensity (Bzz1-1, P38822): 0
- SPOT intensity (Abp1, P15891): 0
- SPOT intensity (Bem1-1, P29366): 0
- SPOT intensity (Sho1, P40073): 1

Binder: GDHPKGPPPPPPPPD
- SPOT intensity (GST): 0
- SPOT intensity (Rvs167, P39743): 0
- SPOT intensity (Cdc25, P04821): 0
- SPOT intensity (Bem1-2, P29366): 0
- SPOT intensity (Bud14, P27637): 1
- SPOT intensity (Nbp2, Q12163): 1
- SPOT intensity (Fus1, P11710): 0
- SPOT intensity (Pin3, Q06449): 0
- SPOT intensity (Lsb1, P53281): 0
- SPOT intensity (Myo3, P36006): 456
- SPOT intensity (Boi1, P38041): 0
- SPOT intensity (Lsb4, P32793): 0
- SPOT intensity (Hof1, Q05080): 0
- SPOT intensity (Lsb3, P43603): 0
- SPOT intensity (Bbc1, P47068): 0
- SPOT intensity (Pex13, P80667): 0
- SPOT intensity (Hse1, P38753): 0
- SPOT intensity (Cyk3, Q07533): 0
- SPOT intensity (Myo5, Q04439): 262
- SPOT intensity (Boi2, P39969): 0
- SPOT intensity (Sla1-3, P32790): 0
- SPOT intensity (Sla1-2, P32790): 0
- SPOT intensity (Bzz1-2, P38822): 0
- SPOT intensity (Bzz1-1, P38822): 331
- SPOT intensity (Abp1, P15891): 0
- SPOT intensity (Bem1-1, P29366): 0
- SPOT intensity (Sho1, P40073): 0

Binder: TPEIPPPLPPKIMVH
- SPOT intensity (GST): 0
- SPOT intensity (Rvs167, P39743): 0
- SPOT intensity (Cdc25, P04821): 2
- SPOT intensity (Bem1-2, P29366): 0
- SPOT intensity (Bud14, P27637): 0
- SPOT intensity (Nbp2, Q12163): 0
- SPOT intensity (Fus1, P11710): 0
- SPOT intensity (Pin3, Q06449): 20
- SPOT intensity (Lsb1, P53281): 0
- SPOT intensity (Myo3, P36006): 304
- SPOT intensity (Boi1, P38041): 0
- SPOT intensity (Lsb4, P32793): 42
- SPOT intensity (Hof1, Q05080): 2240
- SPOT intensity (Lsb3, P43603): 96
- SPOT intensity (Bbc1, P47068): 0
- SPOT intensity (Pex13, P80667): 321
- SPOT intensity (Hse1, P38753): 1540
- SPOT intensity (Cyk3, Q07533): 0
- SPOT intensity (Myo5, Q04439): 87
- SPOT intensity (Boi2, P39969): 0
- SPOT intensity (Sla1-3, P32790): 0
- SPOT intensity (Sla1-2, P32790): 0
- SPOT intensity (Bzz1-2, P38822): 0
- SPOT intensity (Bzz1-1, P38822): 0
- SPOT intensity (Abp1, P15891): 2
- SPOT intensity (Bem1-1, P29366): 0
- SPOT intensity (Sho1, P40073): 52
